Measured values published in article PMC2818592.

What was measured:
[1] = molecular target: T1, PDGF-BB (platelet-derived growth factor B-chain homodimer) (UniProt P01127 82-190); assay: optical diffraction sandwich assay with RCA and microbeads
[2] = molecular target: T1, PDGF-BB (platelet-derived growth factor …); assay: microbead sandwich assay without RCA

T1 sequence (P01127 82-190): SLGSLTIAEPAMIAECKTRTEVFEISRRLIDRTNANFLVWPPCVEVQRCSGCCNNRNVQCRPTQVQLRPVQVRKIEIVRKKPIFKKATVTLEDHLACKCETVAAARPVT

B1: aptamer-primer complex (anti-PDGF-BB aptamer with 3' RCA primer) (structured_DNA)
DNA: TACTCAGGGCACTGCAAGCAATTGTGGTCCCAATGGGCTGAGTATTTTTTTTGTCCGTGCTAGAAGGAAACAGTTAC
- binding result [1]: binds

B2: capture aptamer (anti-PDGF-BB) (structured_DNA)
DNA: TACTCAGGGCACTGCAAGCAATTGTGGTCCCAATGGGCTGAGTATTTTTT
- binding result [2]: binds
